Reference: the RNAGym collection of RNA variant scans (doi:10.7554/elife.80360)

B1: CPEB3 Ribozyme (parent)
chain: GGGGGCCACAGCAGAAGCGUUCACGUCGCGGCCCCUGUCAGAUUCUGGUGAAUCUGCGAAUUCUGCUGU

Variants of: B1
Experiment: self-cleavage, relative activity (ratio to wild type); higher = more cleavage; co-transcriptional

Compared with GGGGGGCACAGCAGAAGCGUUCACGUCGCGGCCCCUGUCAGGUUCUGGUGAAUCUGCGAAUUCUGCUGU, GGGGGACACAGCAGAAGCGUUCACGUCGCGGCCCCUGUCAGAUUCUGGUGAAUCAGCGAAUUCUGCUGU is higher in self-cleavage: 0.324 for the first, 0.396 for the second.

First: GGGGGACACAGCAGAAGCGUUCACGUCGCGGCCCCUGUCAGAUUCUGGUGAAUCGGCGAAUUCUGCUGU
Second: GGGGGACGCAGCAGAAGCGUUCACGUCGCGGCCCCUGUCAGAUUCUGGUGAAUCUGCGAAUUCUGCUGU
The self-cleavage of the first is lower: 0.2 for the first, 0.53 for the second.

First: GGGGGACACAGCAGAAGCGUUCACGUCGCGGCCCCUGUGAGAUUCUGGUGAAUCUGCGAAUUCUGCUGU
Second: GGGGGACACAGCAGAAGCGUUCACGUCGCGGCCCCUGUCAGAUUCUGGUGAAUCUGCGAAUACUGCUGU
The self-cleavage of the first is higher: 0.372 for the first, 0.175 for the second.

First: GGGGGACACAGCAGAAGCGUUCACGUCGCGGCCCCUGUCAGAUUCUGGUGAAUCUGCGAAUGCUGCUGU
Second: GGGGGACACAGCAGAAGCGUUCACGUCGCGGCCCCUGUCAGAUUCUGGUGACUCUGCGAAUUCUGCUGU
The self-cleavage of the first is lower: 0.211 for the first, 0.519 for the second.

Compared with GGGGGGCACAGCAGAGGCGUUCACGUCGCGGCCCCUGUCAGAUUCUGGUGAAUCUGCGAAUUCUGCUGU, GGGGGGCACAGCCGAAGCGUUCACGUCGCGGCCCCUGUCAGAUUCUGGUGAAUCUGCGAAUUCUGCUGU is higher in self-cleavage: 0.127 for the first, 0.163 for the second.

First: GGGGGGCACAGCUGAAGCGUUCACGUCGCGGCCCCUGUCAGAUUCUGGUGAAUCUGCGAAUUCUGCUGU
Second: GGGGGACACAGCAGAAGCGUUCACGUCGCGGCCACUGUCAGAUUCUGGUGAAUCUGCGAAUUCUGCUGU
The self-cleavage of the first is lower: 0.123 for the first, 0.153 for the second.

Going from GGGGGACACAGCAGAAGCGUUCACGUCGCGGCCGCUGUCAGAUUCUGGUGAAUCUGCGAAUUCUGCUGU to GGGGGACACAGCAGAAGCGUUCACGCCGCGGCCCCUGUCAGAUUCUGGUGAAUCUGCGAAUUCUGCUGU, the self-cleavage rises from 0.144 to 0.333.

Compared with GGGGGGCACAGCAGAAGCGUUCACGUCGCGGCCCCUGUCAGAUUCUGGUGAUUCUGCGAAUUCUGCUGU, GGGGGACACAGCAGAAGCGUUCACGUCGCGGCCCCUGUCAGAAUCUGGUGAAUCUGCGAAUUCUGCUGU is higher in self-cleavage: 0.254 for the first, 0.294 for the second.

Compared with GGGGGACACAGCAGAAGCGUUCACGUCGCGGCCCCUGUCAGACUCUGGUGAAUCUGCGAAUUCUGCUGU, GGGGGACAUAGCAGAAGCGUUCACGUCGCGGCCCCUGUCAGAUUCUGGUGAAUCUGCGAAUUCUGCUGU is higher in self-cleavage: 0.412 for the first, 0.94 for the second.

First: GGGGGGCACCGCAGAAGCGUUCACGUCGCGGCCCCUGUCAGAUUCUGGUGAAUCUGCGAAUUCUGCUGU
Second: GGGGGGCAUAGCAGAAGCGUUCACGUCGCGGCCCCUGUCAGAUUCUGGUGAAUCUGCGAAUUCUGCUGU
The self-cleavage of the first is lower: 0.284 for the first, 0.489 for the second.

Going from GGGGGACACAGCAGAAGCGUUCACGUCGCGGCCCCUGUCAGAUUCUGAUGAAUCUGCGAAUUCUGCUGU to GGGGGACACAGCAGAAGCGUUCACGUCGCGGCCCCUGUCAGAUUCUGUUGAAUCUGCGAAUUCUGCUGU, the self-cleavage rises from 0.712 to 0.776.

Compared with GGGGGACACAGCAGAAGCGUUCACGUCGCGGCCCCUGUCAGAUUCUGGUGAAUAUGCGAAUUCUGCUGU, GGGGGACACAGCAGAAGCGUUCACGUCGCGGCCCCUGUCAGAUUCUGGUGAAUGUGCGAAUUCUGCUGU is lower in self-cleavage: 0.282 for the first, 0.246 for the second.

First: GGGGGGCACAGCAGAAGCGUUCACGUCGCGGCCCCUGUCAGAUUCUGGUGGAUCUGCGAAUUCUGCUGU
Second: GGGGGGCACAGCAGAAGCGUUCACGUCGCGGCCCCUGUCAGAUUCUGGUGCAUCUGCGAAUUCUGCUGU
The self-cleavage of the first is higher: 0.356 for the first, 0.154 for the second.

Going from GGGGGGCACAGCAGAAGCGUUCGCGUCGCGGCCCCUGUCAGAUUCUGGUGAAUCUGCGAAUUCUGCUGU to GGGGGGCACAGCAGAAGCGUUCUCGUCGCGGCCCCUGUCAGAUUCUGGUGAAUCUGCGAAUUCUGCUGU, the self-cleavage rises from 0.164 to 0.526.

Compared with GGGGGACACAGCAGAAGCGUUCACGUCGCGGCCCCUGUCAGAUUCUGGUGAAUCUGCCAAUUCUGCUGU, GGGGGACACAGCAGAAGCGUUCAUGUCGCGGCCCCUGUCAGAUUCUGGUGAAUCUGCGAAUUCUGCUGU is lower in self-cleavage: 0.567 for the first, 0.195 for the second.

Compared with GGGGGAGACAGCAGAAGCGUUCACGUCGCGGCCCCUGUCAGAUUCUGGUGAAUCUGCGAAUUCUGCUGU, GGGGGAUACAGCAGAAGCGUUCACGUCGCGGCCCCUGUCAGAUUCUGGUGAAUCUGCGAAUUCUGCUGU is higher in self-cleavage: 0.0736 for the first, 0.115 for the second.

Compared with GGGGGACACAGCAGAAGCGUUCACGUCGCGGCACCUGUCAGAUUCUGGUGAAUCUGCGAAUUCUGCUGU, GGGGGACACAGCAGAAGCGUUCACGUCGGGGCCCCUGUCAGAUUCUGGUGAAUCUGCGAAUUCUGCUGU is higher in self-cleavage: 0.127 for the first, 0.179 for the second.

Compared with GGGGGACACAGCAGAAGCGUUCACGUCGCCGCCCCUGUCAGAUUCUGGUGAAUCUGCGAAUUCUGCUGU, GGGGGACACAGCAGAAGCGUUCACGUCGCGGCCCCUGUCAUAUUCUGGUGAAUCUGCGAAUUCUGCUGU is higher in self-cleavage: 0.209 for the first, 0.225 for the second.

First: GGGGGACACAGCAGAAGCGUUCACGUCGCGGCCCCUGUCACAUUCUGGUGAAUCUGCGAAUUCUGCUGU
Second: GGGGGACACAGCAGAAGCGUUCACGUCGCGGCCCCUGUCAGAUUCUGGUGAAUCUGCGCAUUCUGCUGU
The self-cleavage of the first is lower: 0.192 for the first, 0.221 for the second.

In the case of GGGGGACACAGCAGAAGCGUUCACGUCGCGGCCCCUGUCAGAUUCUGGUGAAUCUGCGUAUUCUGCUGU, the self-cleavage is reported as 0.202.
